Measurements as given in patent US20070244048A1 (published 2007).
Non-standard residues stand in square brackets, D forms with d. No end group written: not given here.

Legend:
[1] = target: T1, human NMUR2 (human, UniProt Q9GZQ4 1-415); assay: 125I-hNMU-25 displacement, HEK cell membranes
T1 construct: whole, on cells; Stably expressed in cells (FLIPR); also called hNMUR2; human R2
Method: (§1) Confluent cell monolayers expressing NMU receptors (the HEK cells described above) were harvested with phosphate buffered saline, collected by centrifugation, and resuspended in membrane buffer (50 mM TrisCl pH 7.4, 5 mM MgCl₂, 1× Protease Inhibitor Cocktail, 10 μM phosphoramidon). After the cell pellet was homogenized, the solution was centrifuged at 18,000 rpm for 20 minutes at 4° C. The pellet was resuspended in membrane buffer to yield a final concentration of 0.5-5 μg/μL of membrane and stored at −80° C.
(§2) Experiments were performed in assay buffer (25 mM TrisCl, pH 7.4, 10 mM MgCl₂, 2mM EDTA, 1× Protease Inhibitor Cocktail, 100 μg/mL Bacitricin, 10 μM phosphoramidon) in 200 μL volumes in a 96-well format using 2-5 μg of membrane and […] ¹²⁵I-hNMU-25 (about 12,000 cpm/well). For non-specific binding, 1 μM hNMU-25 was added. About 5 μL of peptides were added to measure antagonist activity, and the entire reaction was incubated at room temperature with shaking for 80 minutes. The reaction was terminated by rapid filtration through 0.3% poly-ethylenimine presoaked Millipore 96-well filter plates and washed with ice-cold buffer (5 mM TrisCl pH 7.4, 10 mM MgCl₂, 2.5 mM EDTA, 0.04% Triton X-100). Plates were air-dried overnight at room temperature and recovered radioactivity was determined by standard scintillation counting. IC₅₀ values were determined using GraphPad Prism software.
(§3) Concentration-response curves and radioligand-binding data were fitted using Prism (GraphPad Software). Results are summarized below in Tables 8 and 9.

[2] = target: T2, human NMUR1 (human, UniProt Q9HB89 1-426); assay: 125I-hNMU-25 displacement, HEK cell membranes
T2 construct: whole, on cells; Stably expressed in cells (FLIPR); also called hNMUR1; human R1
T2 sequence (looked up): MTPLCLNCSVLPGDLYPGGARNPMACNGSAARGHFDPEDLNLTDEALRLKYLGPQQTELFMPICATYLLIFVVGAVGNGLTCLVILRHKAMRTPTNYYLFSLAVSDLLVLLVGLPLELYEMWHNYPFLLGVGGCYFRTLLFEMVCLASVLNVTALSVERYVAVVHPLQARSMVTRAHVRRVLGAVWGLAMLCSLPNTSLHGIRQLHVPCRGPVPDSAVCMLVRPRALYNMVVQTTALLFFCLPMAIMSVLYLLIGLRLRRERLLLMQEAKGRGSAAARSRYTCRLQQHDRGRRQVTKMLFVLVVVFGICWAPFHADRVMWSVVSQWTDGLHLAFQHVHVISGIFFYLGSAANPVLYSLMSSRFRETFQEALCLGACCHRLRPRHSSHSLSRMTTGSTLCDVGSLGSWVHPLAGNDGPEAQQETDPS
Method: as §1, §2, §3

[3] = target: T1, human NMUR2; assay: cell-based or functional assay
[4] = target: T2, human NMUR1; assay: cell-based or functional assay

T1 sequence (Q9GZQ4 whole entry): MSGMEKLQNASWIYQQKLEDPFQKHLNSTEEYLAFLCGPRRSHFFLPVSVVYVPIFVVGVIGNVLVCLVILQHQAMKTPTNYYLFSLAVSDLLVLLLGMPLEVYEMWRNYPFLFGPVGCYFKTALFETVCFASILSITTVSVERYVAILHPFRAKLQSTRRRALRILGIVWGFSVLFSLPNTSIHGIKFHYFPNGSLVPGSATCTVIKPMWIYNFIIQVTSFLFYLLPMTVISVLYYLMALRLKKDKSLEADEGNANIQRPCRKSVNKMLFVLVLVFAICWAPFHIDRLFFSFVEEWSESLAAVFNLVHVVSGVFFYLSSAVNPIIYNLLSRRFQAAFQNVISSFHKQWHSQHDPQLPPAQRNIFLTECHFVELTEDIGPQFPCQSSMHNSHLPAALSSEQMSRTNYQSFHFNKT

FRVDEEFQSPFASQSRGYFWRPRN-NH2 [neuromedin U receptor agonist G]
% activity (binding) [1]: 33%
IC50 [1]: 31 nM
% activity (binding) [2]: 97%
IC50 [2]: 2.1 nM
% activity [3]: 14%
IC50 (nM), functional [3]: > 1000 nM
% activity [4]: 91%
IC50 (nM), functional [4]: 8.4 nM

B1: neuromedin U receptor agonist E (peptide)
peptide: Ac-F[dL]WRPRN-NH2
SMILES: CC(=O)N[C@@H](Cc1ccccc1)C(=O)N[C@H](CC(C)C)C(=O)N[C@@H](Cc1c[nH]c2ccccc12)C(=O)N[C@@H](CCCNC(=N)N)C(=O)N1CCC[C@H]1C(=O)N[C@@H](CCCNC(=N)N)C(=O)N[C@@H](CC(N)=O)C(N)=O
% activity (binding) [1]: 5%
% activity (binding) [2]: 93%
IC50 [2]: 75 nM
% activity [3]: 1.8%
IC50 (nM), functional [3]: > 1000 nM
% activity [4]: 100%
IC50 (nM), functional [4]: 1.9 nM
